Test results published in publication PMC5566100.

Biological target: IGFIIR extracellular domain (domains 10-14; M6PR) (human, UniProt P11717 1510-2108)
Test: SPR

IGFIIR extracellular domain (domains 10-14; M6PR), sequence (P11717 1510-2108): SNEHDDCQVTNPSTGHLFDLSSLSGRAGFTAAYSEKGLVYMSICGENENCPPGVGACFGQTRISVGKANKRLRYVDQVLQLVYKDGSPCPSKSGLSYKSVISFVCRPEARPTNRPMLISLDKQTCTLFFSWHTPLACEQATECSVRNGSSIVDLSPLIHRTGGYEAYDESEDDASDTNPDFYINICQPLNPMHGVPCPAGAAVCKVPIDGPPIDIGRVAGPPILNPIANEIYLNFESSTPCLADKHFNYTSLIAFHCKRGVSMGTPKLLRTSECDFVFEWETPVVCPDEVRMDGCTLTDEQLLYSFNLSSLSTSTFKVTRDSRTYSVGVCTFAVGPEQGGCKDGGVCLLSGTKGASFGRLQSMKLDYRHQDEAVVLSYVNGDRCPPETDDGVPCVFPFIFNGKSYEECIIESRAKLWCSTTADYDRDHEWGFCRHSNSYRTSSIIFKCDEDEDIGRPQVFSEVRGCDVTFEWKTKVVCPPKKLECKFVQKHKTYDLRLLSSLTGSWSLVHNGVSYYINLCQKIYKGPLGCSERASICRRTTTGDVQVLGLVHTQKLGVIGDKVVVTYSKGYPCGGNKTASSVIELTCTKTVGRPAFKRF

## GGGCGCGUAGAUGACGAGCAGUCCUAACAUCGUUUAGGAC (structured_RNA) [RNA aptamer-20]
  Kd: 20 nM

## GGGCGCGTAGATGACGAGCAGTCCTAACATCGTTTAGGAC (structured_DNA) [DNA aptamer-20]
  Kd: 35.5 nM
